The values below come from US20050084890A1, “High-throughput screening assay for inhibitors of replication protein A” (priority 2003, published 2005).

In data set [1] the target is T1, RPA (Homo sapiens, UniProt P27694).
T1 construct: made in house; host or cells: Escherichia coli
The data set is described as follows: Homogeneous high-throughput fluorescence assay of RPA's DNA binding activity (96-well). Particulars: blind experiment; 5, 25 or 50 pmol competitor in 3 of 96 wells. The protocol:
Specifically, the percentage inhibition is calculated by taking the difference between the fluorescence values of reactions containing DNA and RPA and reactions containing DNA, RPA, and the test compound and dividing by the difference between the fluorescence values of reactions with DNA and RPA and the fluorescence of the DNA alone. This value is then multiplied by 100 to give percentage inhibition. The measurement is typically reported as fluorescence above the background fluorescence of the reporter alone. In one aspect the of the assay the DNA is single stranded DNA.
In accordance with one exemplary embodiment of the present invention, a homogeneous high-throughput screening assay is provided that employs a novel fluorescent reporter for measuring RPA's DNA binding activity. […] The fluorescence is then quantified in a 96-well plate fluorescence spectrophotometer. […]
RPA (10 pmol) was added to each well of a 96-well plate in a volume of 100 μl. […] Plates were read in a fluorometer. Fluorescence emission was read at 518 nm following excitation at […]. Fluorescence was read using a 96-well plate reader with a 2.5 nm excitation slit width and a 5 nm emission slit width. […] The data is presented as fluorescence above the background fluorescence of the reporter alone unless indicated otherwise. […]

Data set [2] concerns the target T2, Replication Protein A (RPA) (Homo sapiens, UniProt P27694;P15927;P35244 P27694:1-616,P15927:1-270,P35244:1-121). The data set is described as follows: FP; polarization r max 0.23 without compound; saturation at about 15 pmol RPA in control as printed. Particulars: tags: expressed in E. coli from vector pdT11 (Marc Wold); label: fluorescein. The protocol:
To more precisely determine if the method of inhibition was via an interaction with DNA or RPA, fluorescence polarization experiments were conducted. Fluorescence polarization is a measure of the rate at which an object tumbles or rotates in three-dimensional space. In this experiment, a fluorescein-labeled dT₃₀ substrate DNA is employed which results in a baseline polarization that is increased upon RPA binding; to the DNA and slowing its rotation. Using this method, it can be determined if the interaction of the compound was with DNA or RPA by constructing binding isotherms varying RPA at a fixed concentration of DNA with and without the addition of specific compounds. Using fluorescence polarization, compounds that exert their inhibitory effect through an interaction with the DNA were capable of being identified. Fluorescence polarization was performed by titrating RPA into a reaction containing fluorescein-labeled dT₃₀ DNA in the presence and absence of 20 μM compound (FIG. 5). […] This conclusion is further supported by experiments performed measuring the effect of compound 1:51 on polarization of the DNA in the absence of RPA. In these reactions, the r value of the DNA plus compound was slightly greater than the r value of the DNA without compound.

Data set [3] has as its target T2, Replication Protein A (RPA). The data set is described as follows: competition; 5, 25 or 50 pmol unlabeled DNA inhibits RPA binding to the fluorescein-labeled reporter. Particulars: tags: expressed in E. coli from vector pdT11 (Marc Wold). The protocol: RPA (10 pmol) was added to each well of a 96-well plate in a volume of 100 μl. Individual compounds were added to each well followed by the fluorescent reporter. The final reaction volume was 200 μl. Plates were read in a fluorometer. Fluorescence emission was read at 518 nm following excitation at […]. Fluorescence was read using a 96-well plate reader with a 2.5 nm excitation slit width and a 5 nm emission slit width. To calculate the percentage inhibition, the difference between the fluorescence values of reactions containing DNA and RPA and […] the test compound was divided by the difference between the fluorescence values of reactions with DNA and RPA and the fluorescence of the DNA alone. This value was then multiplied by 100 to give percentage inhibition. The data is presented as fluorescence above the background fluorescence of the reporter alone unless indicated otherwise.
To determine the effectiveness of this assay, a blind experiment was performed in which 3 of the 96 wells were added to 5, 25, or 50 pmol DNA substrate that has the exact sequence of the fluorescent DNA reporter without the fluorescein label. This DNA would compete for RPA, therefore acting as an inhibitor. […] The effect of DMSO on reaction sensitivity and reproducibility was assessed and the results indicated no difference in assay sensitivity.

For data set [4] the target is unchanged. The data set is described as follows: fluorescence enhancement (ex 498 nm, em 518 nm); hyperbolic curve saturating at 1:1 RPA:DNA. Particulars: tags: expressed in E. coli from vector pdT11 (Marc Wold); label: 5' fluorescein. Here is the method:
In an effort to investigate the effect small molecules have on the interaction of RPA with DNA, an HTS assay was developed that relies on the use of a fluorescein-labeled ssDNA substrate. […] In an effort to optimize the detection, fluorescent excitation and emission wavelengths were tested along with varying slit widths and voltages. The optimal parameters were excitation at 498 nm and emission at […]. The optimal excitation and emission slit widths and voltage were 2.5 and 5 nm and 800 V, respectively.
In an attempt to test a large number of compounds simultaneously, the assay was converted to a 96-well plate format. In this assay, the fluorescein-labeled DNA was diluted into assay buffer and 100 μl were dispensed into each well. The fluorescence of each well was then read. Each well then received 100 μl RPA and the fluorescence of each well was read again. Percentage increase of fluorescence was then calculated from these two readings and is represented in FIG. 1.

T2 sequence (P27694 whole entry, chain 1 of 3): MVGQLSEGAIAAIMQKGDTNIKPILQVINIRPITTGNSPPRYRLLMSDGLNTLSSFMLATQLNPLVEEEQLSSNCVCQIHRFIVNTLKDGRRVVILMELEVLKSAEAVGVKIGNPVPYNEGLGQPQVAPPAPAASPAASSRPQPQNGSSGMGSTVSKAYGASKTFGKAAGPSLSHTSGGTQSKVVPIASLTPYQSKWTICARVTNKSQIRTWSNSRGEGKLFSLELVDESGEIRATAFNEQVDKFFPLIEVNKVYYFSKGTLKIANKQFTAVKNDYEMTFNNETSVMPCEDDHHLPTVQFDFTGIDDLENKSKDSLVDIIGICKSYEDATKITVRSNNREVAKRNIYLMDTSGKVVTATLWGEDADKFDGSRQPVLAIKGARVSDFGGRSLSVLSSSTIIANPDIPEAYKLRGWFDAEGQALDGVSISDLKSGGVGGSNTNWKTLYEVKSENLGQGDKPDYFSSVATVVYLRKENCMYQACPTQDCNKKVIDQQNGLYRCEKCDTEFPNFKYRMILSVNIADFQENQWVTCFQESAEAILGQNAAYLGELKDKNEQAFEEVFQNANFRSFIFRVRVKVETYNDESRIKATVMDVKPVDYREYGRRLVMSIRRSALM
T2 sequence (P15927 whole entry, chain 2 of 3): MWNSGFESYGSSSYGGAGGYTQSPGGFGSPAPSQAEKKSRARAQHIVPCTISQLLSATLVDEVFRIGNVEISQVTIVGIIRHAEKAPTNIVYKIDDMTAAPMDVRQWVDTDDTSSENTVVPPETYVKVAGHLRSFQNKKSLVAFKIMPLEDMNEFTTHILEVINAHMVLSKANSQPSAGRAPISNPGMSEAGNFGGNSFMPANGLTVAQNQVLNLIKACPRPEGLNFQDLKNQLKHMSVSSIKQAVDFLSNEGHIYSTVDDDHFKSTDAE
T2 sequence (P35244 whole entry, chain 3 of 3): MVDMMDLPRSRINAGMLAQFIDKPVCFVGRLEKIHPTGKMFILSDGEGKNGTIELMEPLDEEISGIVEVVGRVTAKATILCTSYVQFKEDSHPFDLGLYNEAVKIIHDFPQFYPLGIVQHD
T1 sequence (P27694 whole entry): as the sequence (P27694 whole entry, chain 1 of 3) above
T1 sequence (P15927 whole entry partner): as the sequence (P15927 whole entry, chain 2 of 3) above
T1 sequence (P35244 whole entry partner): as the sequence (P35244 whole entry, chain 3 of 3) above

Consider “DNA substrate that has the exact sequence of the fluorescent DNA reporter without the fluorescein label: unlabeled 30 base ssDNA of SEQ ID NO: 1 sequence, competes for RPA, acting as an inhibitor (DNA GGGGAAGTAAGGACGCGGAAAGGATAGGGG; DNA, backbone not given here; unlabeled competitor ssDNA)”, for which the “inhibition of RPA binding to the fluorescein-labeled DNA” value in data set [1] was “significant inhibition”.
In the case of TTTTTTTTTTTTTTTTTTTTTTTTTTTTTT (ssDNA, [NONE]) [dT30], in data set [2], the binding result is “binds”.
For GGGGAAGTAAGGACGCGGAAAGGATAGGGG (ssDNA) [30-base unlabeled competitor DNA], the binding result in data set [3] was “binds”.
For GGGGAAGTAAGGACGCGGAAAGGATAGGGG (ssDNA) [30-base purine-rich reporter DNA], the binding result in data set [4] was “binds”.
